Reference: patent publication US20210363241A1 (Eli Lilly, published 2021)

Key:
[1] = molecular target: T1, Cynomolgus monkey CD226 on the cell surface of stably transfected HEK 293 cells (cynomolgus monkey, UniProt A0A2K5W1Z6 19-336); test: flow cytometry on HEK 293 cells expressing cynomolgus CD226, antibody at 0.14 ug/mL
T1 construct: whole, on cells; also called Cyno-CD226
T1 sequence: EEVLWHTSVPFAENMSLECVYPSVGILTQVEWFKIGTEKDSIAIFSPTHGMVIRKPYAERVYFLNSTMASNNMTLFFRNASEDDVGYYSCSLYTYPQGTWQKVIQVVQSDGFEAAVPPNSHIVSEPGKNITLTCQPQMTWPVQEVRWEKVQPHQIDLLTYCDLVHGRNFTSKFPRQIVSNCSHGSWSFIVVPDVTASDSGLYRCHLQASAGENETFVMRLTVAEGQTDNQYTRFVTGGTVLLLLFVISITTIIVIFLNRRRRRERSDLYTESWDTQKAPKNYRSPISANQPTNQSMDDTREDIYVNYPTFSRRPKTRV
Description: (§1) The ability of the antibodies disclosed herein to bind to cell surface cynomolgus monkey CD226 can be measured using a flow cytometric assay. Cynomolgus monkey CD226 expressing stable cells are generated by transfecting Cyno-CD226 plasmid DNA into human HEK 293 cells (ATCC) using Fugene-6 reagent (Promega) according to the manufacturer's protocol. Stable cells are selected using 0.5 μg/mL puromycin in Dulbecoo's Modified Eagle's Medium containing 10% fetal bovine serum and 1% GlutaMAX™. For flow cytometry, confluent adherent cells are detached using Gibco® Cell Dissociation Buffer (Life Technologies), washed with complete media, then resuspend in FACS buffer (phosphate buffered saline containing 2.5% fetal bovine serum+1 mM EDTA) and then transferred into a 96 well V bottom plate at a density of 5×10⁴ cells/well. […]
(§2) After washing in FACS buffer, secondary antibody allophycocyanin (APC) conjugated goat anti-human IgG, F(ab′)2 fragment specific antibody (Jackson ImmunoResearch Laboratories) is added at a 1:200 dilution and cells are incubated at room temperature for 30 minutes. […] Flow cytometry data is analyzed using FlowJo® Software. Median fluorescence intensity (MFI) ratio is calculated as the (MFI of Experimental antibody)/(MFI of the control IgG).

[2] = molecular target: T2, Human CD226 on the cell surface of stably transfected HEK 293 cells (human, UniProt Q15762 19-336); test: cell-based or functional assay
T2 sequence: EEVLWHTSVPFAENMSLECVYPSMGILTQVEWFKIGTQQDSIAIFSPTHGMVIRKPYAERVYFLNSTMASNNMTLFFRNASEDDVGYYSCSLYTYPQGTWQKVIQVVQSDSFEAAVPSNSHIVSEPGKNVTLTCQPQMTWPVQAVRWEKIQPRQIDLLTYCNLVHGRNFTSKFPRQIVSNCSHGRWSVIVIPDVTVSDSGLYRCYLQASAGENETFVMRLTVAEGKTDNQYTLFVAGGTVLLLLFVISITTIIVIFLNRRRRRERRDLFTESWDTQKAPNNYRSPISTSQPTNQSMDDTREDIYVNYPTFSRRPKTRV

[3] = molecular target: T3, Recombinant human CD226-Fc fusion protein (R&D Systems) (human); test: SPR (Biacore T200), human CD226-Fc amine-coupled to chip, antibody injected at 1.95-1000 nM, 25 C, steady state fit
T3 construct: The reagent was bought from R&D Systems; also called Human CD226-ECD-Fc; Human CD226-Extracellular Domain-Fc
Description: A Biacore T200 instrument can be used to measure the kinetics of immobilized human CD226-Fc binding to Antibody 1. Recombinant human CD226-Fc fusion protein (R&D Systems) is covalently immobilized to a CMS sensor chip via amine coupling (GE Healthcare). CD226 antibody testing is performed at a flow rate of 100 μL/min in HBS-EP+buffer. Samples are injected at various concentrations and measurements obtained at 25° C. The surface is regenerated after each sample injection with 10 mM Glycine-HCl pH 2.1 at flow rate of 10 μL/min for 30 seconds and then stabilized with buffer for 10 seconds. Sensorgrams of concentrations ranging from 1.95 nM to 1000 nM are evaluated using Biacore T200 software. The equilibrium dissociation constant (KD) or binding affinity constant is calculated from steady state fit. In experiments performed essentially as described above, Antibody 1 binds to human CD226 with the affinity constants illustrated in Table 2.

[4] = molecular target: T3, Recombinant human CD226-Fc fusion …; test: ELISA, plate coated with human CD226-Fc, anti-human F(ab')2-HRP detection
Description: The ability of the antibodies disclosed herein to bind human CD226 can be measured by ELISA. To measure binding to human CD226, a 96-well plate (Immulon 2HB) is coated with human CD226-Fc (R&D Systems) overnight at 4° C. Wells are blocked for 2 h with blocking buffer (PBS containing 1% bovine serum albumin). Wells are washed three times with PBS containing 0.1% Tween-20. Antibody 1 or control IgG (100 μL) is then added at different concentrations and incubated at room temperature for 1 h. After washing, the plate is incubated with 100 μL of goat anti-human IgG F(ab′)2-HRP conjugate (Jackson Immuno Research Laboratories) at room temperature for 45 minutes. The plates are washed and then incubated with 100 μL of 3,3′, 5,5′-tetra-methylbenzidine. The absorbance at 450 nm is read on a SpectraMax® microplate reader. The half maximal effective concentration (EC50) is calculated using GraphPad Prism 7 software.

[5] = molecular target: T2, Human CD226 on the cell surface of …; test: flow cytometry on HEK 293 cells expressing human CD226, antibody at 0.14 ug/mL
Description: as §1, with “Human” for “cynomolgus monkey”, “Human” for “Cynomolgus monkey”, “human-CD226” for “Cyno-CD226”
as §2

B1: Antibody 1 (antibody, human IgG1, kappa, V domains shown)
VH: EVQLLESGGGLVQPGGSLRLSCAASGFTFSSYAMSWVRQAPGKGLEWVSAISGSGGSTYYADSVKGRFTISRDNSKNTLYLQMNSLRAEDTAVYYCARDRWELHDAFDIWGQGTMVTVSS
VL: VIWMTQSPSSLSASVGDRVTITCRASQSISSYLNWYQQKPGKAPRLLIYRASTLQSGVPSRFSGDGSGTHFTLTISSLQPEDFATYYCQQSYSTPDTFGQGTKVEIKR
notes: also called anti-human CD226 agonist antibody; human anti-human CD226 IgG1-effector null (IgG1-EN) antibody
For B1, the “MFI ratio (MFI of antibody / MFI of control IgG)” value [1] was 2920, the “NF-kB luciferase reporter EC50” value [2] was 4.11 nM and the Kd [3] was 334 nM. For the same binder, the EC50 [4] was 0.1 nM and the “MFI ratio (MFI of antibody / MFI of control IgG)” value [5] was 851.
